The text below walks through data of paper PMC5916898, “Global profiling of protein–DNA and protein–nucleosome binding affinities using quantitative mass spectrometry”.

One data set deals with RBPJ (Homo sapiens, UniProt Q06330). Kind of data set: pulldown; 150 mM NaCl, 50 mM Tris pH 8, 0.25% NP-40, 1 mM TCEP; 4 C, 2 h; 100 ug HeLa nuclear lysate. To be noted: protein: extract; label: 5' biotin (strand 1).
The next data set deals with ZBTB7B (Homo sapiens, UniProt O15156). The data set is described as above. As to conditions: protein: extract; label: 5' biotin (strand 1).
In data set [1] the target is T1, SP3 (Homo sapiens, UniProt Q02447). The description is as above. As to conditions: protein: extract; label: 5' biotin (strand 1).
For data set [2], the target named is T2, ZNF148 (Homo sapiens, UniProt Q9UQR1).
T2 sequence: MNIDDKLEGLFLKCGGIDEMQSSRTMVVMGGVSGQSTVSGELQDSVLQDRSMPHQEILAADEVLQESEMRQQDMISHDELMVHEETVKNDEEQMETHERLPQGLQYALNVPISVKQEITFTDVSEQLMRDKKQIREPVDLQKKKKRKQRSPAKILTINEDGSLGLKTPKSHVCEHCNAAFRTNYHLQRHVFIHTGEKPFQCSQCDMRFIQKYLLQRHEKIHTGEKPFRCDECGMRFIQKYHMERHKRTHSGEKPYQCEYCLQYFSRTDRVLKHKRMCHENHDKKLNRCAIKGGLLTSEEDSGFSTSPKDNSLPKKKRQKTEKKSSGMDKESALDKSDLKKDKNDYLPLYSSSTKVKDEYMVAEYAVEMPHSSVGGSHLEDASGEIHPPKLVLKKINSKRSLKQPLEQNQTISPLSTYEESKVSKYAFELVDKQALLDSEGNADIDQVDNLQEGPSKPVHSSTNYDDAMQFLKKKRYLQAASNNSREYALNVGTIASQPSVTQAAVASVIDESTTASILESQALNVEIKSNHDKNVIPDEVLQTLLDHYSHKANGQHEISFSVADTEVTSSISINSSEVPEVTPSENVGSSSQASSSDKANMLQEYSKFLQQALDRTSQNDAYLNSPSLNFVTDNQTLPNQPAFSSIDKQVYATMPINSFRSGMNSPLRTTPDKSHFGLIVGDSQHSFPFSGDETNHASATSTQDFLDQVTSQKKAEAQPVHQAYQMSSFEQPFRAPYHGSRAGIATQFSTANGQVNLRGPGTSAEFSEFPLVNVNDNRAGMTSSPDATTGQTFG
Described as above. As to conditions: protein: extract; label: 5' biotin (strand 1).

The target in another data set is KLF3 (Homo sapiens, UniProt P57682). The description is as above. To be noted: protein: extract; label: 5' biotin (strand 1).
A further data set addresses NFIA (Homo sapiens, UniProt Q12857). The description is as above. To be noted: protein: extract; label: 5' biotin (strand 1).
A further data set addresses KLF10 (Homo sapiens, UniProt Q13118). Described as above. As to conditions: protein: extract; label: 5' biotin (strand 1).
Data set [3] has as its target T1, SP3. Kind of data set: competition; 150 mM NaCl, 50 mM Tris pH 8, 0.25% NP-40, 1 mM TCEP; 4 C, 2 h; 100 ug HeLa nuclear lysate; free competitor against 200 nM immobilised SP/KLF wild-type. To be noted: protein: extract.
Another data set has as its target KLF16 (Homo sapiens, UniProt Q9BXK1). Described as above. To be noted: protein: extract.
Data set [4] deals with T2, ZNF148. The data set is described as above. As to conditions: protein: extract.
A further data set has as its target KLF4 (Homo sapiens, UniProt O43474). The data set is described as above. To be noted: protein: extract.
In another data set the target is T3, FOXL2 (Homo sapiens, UniProt P58012).
T3 sequence: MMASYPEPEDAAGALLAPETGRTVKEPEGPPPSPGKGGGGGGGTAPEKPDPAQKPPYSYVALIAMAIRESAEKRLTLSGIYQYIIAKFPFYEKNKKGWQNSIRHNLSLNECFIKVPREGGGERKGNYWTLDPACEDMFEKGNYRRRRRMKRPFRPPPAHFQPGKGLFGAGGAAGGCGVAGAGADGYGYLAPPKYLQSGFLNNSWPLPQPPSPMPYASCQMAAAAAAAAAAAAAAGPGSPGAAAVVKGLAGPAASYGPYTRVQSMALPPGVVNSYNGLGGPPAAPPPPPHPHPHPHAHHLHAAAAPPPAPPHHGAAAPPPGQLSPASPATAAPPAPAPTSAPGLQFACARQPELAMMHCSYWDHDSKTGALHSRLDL
Kind of data set: pulldown; 150 mM NaCl, 50 mM Tris pH 8, 0.25% NP-40, 1 mM TCEP; 4 C, 2 h; 100 ug HeLa nuclear lysate. As to conditions: protein: extract; label: 5' biotin (strand 1).

T1 sequence (Q02447 whole entry): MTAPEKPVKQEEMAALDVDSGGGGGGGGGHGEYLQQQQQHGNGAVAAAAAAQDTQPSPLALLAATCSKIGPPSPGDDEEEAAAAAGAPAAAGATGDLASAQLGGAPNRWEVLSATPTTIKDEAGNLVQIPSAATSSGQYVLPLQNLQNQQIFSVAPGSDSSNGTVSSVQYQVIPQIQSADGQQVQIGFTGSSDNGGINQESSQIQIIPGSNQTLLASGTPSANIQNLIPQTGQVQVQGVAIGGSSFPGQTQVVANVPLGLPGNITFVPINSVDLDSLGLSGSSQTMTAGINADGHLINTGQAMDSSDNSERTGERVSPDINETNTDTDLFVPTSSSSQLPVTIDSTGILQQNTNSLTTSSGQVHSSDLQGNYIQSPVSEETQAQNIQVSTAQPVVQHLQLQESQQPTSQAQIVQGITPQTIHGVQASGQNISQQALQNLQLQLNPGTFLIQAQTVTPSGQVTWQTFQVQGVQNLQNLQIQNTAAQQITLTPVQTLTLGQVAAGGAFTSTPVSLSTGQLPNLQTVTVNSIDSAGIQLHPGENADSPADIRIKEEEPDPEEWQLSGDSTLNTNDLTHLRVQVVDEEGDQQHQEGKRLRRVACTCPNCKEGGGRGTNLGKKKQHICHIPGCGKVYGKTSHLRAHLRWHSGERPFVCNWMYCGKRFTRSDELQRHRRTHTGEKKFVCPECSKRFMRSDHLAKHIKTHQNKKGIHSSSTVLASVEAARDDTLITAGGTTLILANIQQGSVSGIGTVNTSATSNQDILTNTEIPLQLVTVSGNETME
Sequence of KLF3 (P57682 whole entry): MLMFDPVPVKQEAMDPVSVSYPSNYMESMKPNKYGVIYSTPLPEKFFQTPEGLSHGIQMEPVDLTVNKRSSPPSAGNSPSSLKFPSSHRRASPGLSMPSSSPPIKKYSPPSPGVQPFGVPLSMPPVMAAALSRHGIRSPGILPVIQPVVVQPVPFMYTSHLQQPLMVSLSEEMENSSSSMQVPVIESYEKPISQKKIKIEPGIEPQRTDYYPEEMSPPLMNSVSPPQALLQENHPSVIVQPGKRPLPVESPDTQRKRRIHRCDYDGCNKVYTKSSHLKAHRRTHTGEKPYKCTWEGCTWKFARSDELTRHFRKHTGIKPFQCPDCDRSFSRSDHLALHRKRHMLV
Sequence of NFIA (Q12857 whole entry): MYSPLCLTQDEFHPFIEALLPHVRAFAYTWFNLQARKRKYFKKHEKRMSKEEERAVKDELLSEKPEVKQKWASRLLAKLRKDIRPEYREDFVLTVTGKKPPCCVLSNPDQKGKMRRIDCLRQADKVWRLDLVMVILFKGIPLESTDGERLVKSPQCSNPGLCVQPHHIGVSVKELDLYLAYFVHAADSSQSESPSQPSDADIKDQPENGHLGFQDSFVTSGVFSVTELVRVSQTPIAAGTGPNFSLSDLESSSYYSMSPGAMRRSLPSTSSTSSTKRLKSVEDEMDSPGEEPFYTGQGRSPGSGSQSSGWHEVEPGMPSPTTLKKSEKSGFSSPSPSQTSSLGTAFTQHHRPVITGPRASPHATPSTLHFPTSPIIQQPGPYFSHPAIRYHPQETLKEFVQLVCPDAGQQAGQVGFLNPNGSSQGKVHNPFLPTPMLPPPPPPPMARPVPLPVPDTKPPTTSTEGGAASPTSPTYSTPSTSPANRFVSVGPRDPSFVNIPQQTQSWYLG
Sequence of ZBTB7B (O15156 whole entry): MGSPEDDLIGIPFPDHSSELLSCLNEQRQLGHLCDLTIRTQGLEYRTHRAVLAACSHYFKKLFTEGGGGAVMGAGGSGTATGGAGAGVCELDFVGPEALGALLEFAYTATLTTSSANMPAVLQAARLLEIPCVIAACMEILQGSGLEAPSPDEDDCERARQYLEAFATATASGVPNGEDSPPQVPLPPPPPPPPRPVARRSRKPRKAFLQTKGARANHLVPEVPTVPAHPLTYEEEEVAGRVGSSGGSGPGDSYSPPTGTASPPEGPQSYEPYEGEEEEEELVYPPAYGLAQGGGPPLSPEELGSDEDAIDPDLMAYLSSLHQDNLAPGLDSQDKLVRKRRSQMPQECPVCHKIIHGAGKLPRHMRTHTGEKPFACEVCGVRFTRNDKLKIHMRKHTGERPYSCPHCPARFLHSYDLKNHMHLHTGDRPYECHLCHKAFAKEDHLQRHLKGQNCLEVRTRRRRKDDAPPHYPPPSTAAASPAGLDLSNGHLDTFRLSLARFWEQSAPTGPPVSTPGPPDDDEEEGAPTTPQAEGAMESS
Sequence of KLF10 (Q13118 whole entry): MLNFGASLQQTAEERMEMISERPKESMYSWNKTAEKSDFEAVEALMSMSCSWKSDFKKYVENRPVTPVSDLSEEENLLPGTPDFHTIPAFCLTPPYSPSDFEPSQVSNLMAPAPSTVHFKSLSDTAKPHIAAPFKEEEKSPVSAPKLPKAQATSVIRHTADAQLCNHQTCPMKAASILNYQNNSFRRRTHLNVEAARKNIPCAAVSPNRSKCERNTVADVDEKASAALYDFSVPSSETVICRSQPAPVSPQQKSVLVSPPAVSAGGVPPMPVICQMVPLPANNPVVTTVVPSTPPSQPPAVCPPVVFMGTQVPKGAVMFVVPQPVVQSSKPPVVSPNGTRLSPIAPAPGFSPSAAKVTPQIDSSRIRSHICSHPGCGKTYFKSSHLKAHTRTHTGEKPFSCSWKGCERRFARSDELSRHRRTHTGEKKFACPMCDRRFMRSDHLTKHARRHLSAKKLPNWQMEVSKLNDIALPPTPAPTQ
Sequence of RBPJ (Q06330 whole entry): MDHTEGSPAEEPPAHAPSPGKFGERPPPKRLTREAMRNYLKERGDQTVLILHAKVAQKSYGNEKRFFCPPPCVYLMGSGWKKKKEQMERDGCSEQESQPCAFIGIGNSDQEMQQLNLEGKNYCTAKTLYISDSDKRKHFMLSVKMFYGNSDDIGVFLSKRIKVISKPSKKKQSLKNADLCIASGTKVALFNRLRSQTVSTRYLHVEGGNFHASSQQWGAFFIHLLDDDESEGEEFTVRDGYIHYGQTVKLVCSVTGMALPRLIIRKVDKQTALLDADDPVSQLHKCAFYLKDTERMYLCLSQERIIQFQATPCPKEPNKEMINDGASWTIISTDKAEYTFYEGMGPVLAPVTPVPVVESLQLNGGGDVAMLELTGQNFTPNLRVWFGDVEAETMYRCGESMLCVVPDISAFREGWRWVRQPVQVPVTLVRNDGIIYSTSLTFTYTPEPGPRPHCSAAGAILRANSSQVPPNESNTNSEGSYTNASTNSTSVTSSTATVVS
Sequence of KLF16 (Q9BXK1 whole entry): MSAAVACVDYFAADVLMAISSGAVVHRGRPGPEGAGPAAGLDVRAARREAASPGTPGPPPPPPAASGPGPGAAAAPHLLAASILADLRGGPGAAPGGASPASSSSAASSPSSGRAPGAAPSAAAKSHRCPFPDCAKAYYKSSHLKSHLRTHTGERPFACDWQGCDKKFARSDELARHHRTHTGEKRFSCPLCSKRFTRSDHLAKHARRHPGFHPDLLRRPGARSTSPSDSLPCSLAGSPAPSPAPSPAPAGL
Sequence of KLF4 (O43474 whole entry): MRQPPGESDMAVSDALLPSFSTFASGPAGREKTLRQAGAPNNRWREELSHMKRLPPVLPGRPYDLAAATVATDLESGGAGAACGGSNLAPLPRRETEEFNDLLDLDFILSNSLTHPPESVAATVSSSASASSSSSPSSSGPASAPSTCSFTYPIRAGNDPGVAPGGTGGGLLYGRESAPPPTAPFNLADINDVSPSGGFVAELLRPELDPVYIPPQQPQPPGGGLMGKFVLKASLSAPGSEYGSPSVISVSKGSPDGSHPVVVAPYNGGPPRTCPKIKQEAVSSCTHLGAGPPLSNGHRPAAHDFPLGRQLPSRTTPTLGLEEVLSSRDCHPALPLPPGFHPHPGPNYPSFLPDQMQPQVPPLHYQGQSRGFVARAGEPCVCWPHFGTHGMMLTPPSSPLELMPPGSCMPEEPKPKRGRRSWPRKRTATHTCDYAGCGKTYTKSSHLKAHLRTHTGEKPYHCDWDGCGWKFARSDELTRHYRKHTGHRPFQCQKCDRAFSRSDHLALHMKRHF

B1: CTCF (dsDNA)
DNA 1: TCAGAGTGGCGGCCAGCAGGGGGCGCCCTTGCCAGA
DNA 2: TCTGGCAAGGGCGCCCCCTGCTGGCCGCCACTCTGA
As for B1, the “apparent K (half saturation)” value in the data set with RBPJ turned out to be 376 nM; with ZBTB7B, 39.2 nM; in the data set with SP3 [1] it was 72 nM; with ZNF148 [2] it was 63.7 nM; with KLF3, 124 nM; in the data set with NFIA it was 72.8 nM. For the same molecule, the “apparent K (half saturation)” value with KLF10 came out at 41.2 nM.

B2: SP/KLF wild-type (dsDNA)
DNA 1: GAGAGCCCCGCCCCCTGGCT
DNA 2: AGCCAGGGGGCGGGGCTCTC
One may read the IC50 as the midpoint of a concentration-inhibition curve. As to B2, the IC50 with SP3 [3] was 147 nM; in the data set with KLF16, 176 nM; with ZNF148 [4] it was 164 nM; in the data set with KLF4 it was 229 nM. Moreover, the figures for the “apparent K (half saturation)” value with SP3 [1], in the data set with ZNF148 [2] and with KLF3 were 19.3 nM, 70.5 nM and 61.9 nM, respectively.

B3: TEAD (dsDNA)
DNA 1: TCGGGACCCAGGCCTGGAATGTTTCCACC
DNA 2: GGTGGAAACATTCCAGGCCTGGGTCCCGA
For the molecule B3, the “apparent K (half saturation)” value in the data set with RBPJ worked out at 208 nM; with ZNF148 [2], 387 nM; in the data set with NFIA it was 119 nM; with FOXL2, 140 nM.

B4: TATA-box (dsDNA)
DNA 1: GCGGCGCTCTATATAAGTGGGCAGTG
DNA 2: CACTGCCCACTTATATAGAGCGCCGC
Turning to B4, the “apparent K (half saturation)” value in the data set with ZBTB7B came out at 230 nM; with ZNF148 [2], 383 nM; with KLF10 it was 84.5 nM; with FOXL2 it was 140 nM.
